We go through 5 molecules from US20260166140A1, “Combinations Involving Epidermal Growth Factor Receptor Tyrosine Kinase Inhibitors For the Treatment of Cancer” (AstraZeneca AB, priority 2022, published 2026).

Series [1] has as its system multiple additional solid tumor indications. The following applies: cited from earlier work.
The test system of the next series is H1975 cells. Description: Internalization of AF647-labeled antibodies, live cell confocal fluorescence microscopy. The following applies: for internalization profile: single-arm control antibodies. It is filed as cell-based. As for the experimental part: (§1) Internalization kinetics of AlexaFluor647 (AF647) primary-labeled DuetMabs: RAA22/B09 and QD6/B09 antibodies was assessed in vitro using the EGFR and c-MET expressing cell line, H1975. Each antibody was pre-bound to cells and antibody translocation from cell surface to cytoplasm was then monitored using live cell confocal fluorescence microscopy. Both antibodies localized primarily on the cell surface before (T=0) subjecting to internalization conditions and were translocated to the cytoplasm area after 1 hour (data not shown). Kinetic images were taken every 5 min over the time course of internalization and were processed using a quantitative algorithm to determine internalization kinetic constants and half-times.
To evaluate the mode of antibody internalization and to investigate contribution of each arm to overall internalization of the DuetMabs, we evaluated internalization of single-arm specific control antibody molecules, QD6/IgG and B09/IgG, against duet QD6/B09, and RAA22/IgG and B09/IgG against duet RAA22/B09 in H1975 cells, which express both EGFR and c-MET. Since only one arm is specific for the target receptor, the control antibody can only internalize via one receptor eliminating dual receptor targeting and cross-linking as mode of internalization.

The next series relates to HCC827 cells. The description is as above. It is filed as cell-based. The following applies: HCC827 cells. As for the experimental part: as §1
Since binding of both EGFR and c-MET arms to target receptor promoted RAA22/B09 receptor internalization in H1975 cells, we examined if the increased number of EGFR and c-MET receptors would affect internalization properties. The respective receptor levels determined by Western Blot were ˜33,000 for EGFR and ˜50,000 for c-MET in H1975 cells and ˜790,000 for EGFR and ˜523,000 for c-MET in HCC827 cells.

Series [2] addresses T1, Mouse EGFR (Mus musculus, UniProt Q01279).
T1 construct: purchased SinoBiological 51091-M08H
As to the kind of experiment: SPR (BIAcore T200) antibody capture kinetics. It is filed as binding. Conditions: 25° C. The method, then: (§2) Mouse anti-human IgG was immobilized on a CM4 sensor chip with a final surface density of ˜2000 resonance units (RUs). A reference flow cell surface was also prepared on this sensor chip using identical immobilization protocol. Test and control article antibodies were prepared at 5-20 nM in instrument buffer (HBS-EP buffer; 0.01M HEPES, pH 7.4, 0.15M NaCl, 3 mM EDTA, and 0.005% P-20), along with 3-fold serial dilutions of purified EGFR (0.27-200 nM human, 0.4-900 nM cyno, and 4-1000 nM murine) or cMET proteins (0.27 to 66 nM human and 0.27-22 nM cyno) in instrument buffer. A sequential approach was utilized for kinetic measurements. Antibodies were first injected over the capture surface, at a flow rate of 10 μL/minute. Once the binding of the captured antibody stabilized, a single concentration of the analyte was injected over both capture and reference surfaces, at a flow rate of 75 μL/minute. The resulting binding response curves yielded the association phase data. Following the injection of analyte, the flow was then switched back to instrument buffer for 15 minutes to permit the collection of dissociation phase data, followed by a 1-minute pulse of 10 mM glycine, pH 1.5, to regenerate the antibody-captured surface on the chip. Binding responses against test and control article antibodies were recorded from duplicate injections of each concentration of analyte. In addition, several buffer injections were interspersed throughout the injection series. Select buffer injections were used along with the reference cell responses to correct the raw data sets for injection artifacts and/or nonspecific binding interactions, commonly referred to as “double referencing”. Corrected binding data were globally fit to a 1:1 binding model (Biacore T200 Evaluation software 2.0, GE Healthcare, Pittsburgh, PA).
(In general: SPR reads the build-up and loss of mass on a sensor chip optically.)

Series [3] deals with T2, Human EGFR (Homo sapiens, UniProt P00533). As to the kind of experiment: SPR (BIAcore T200) antibody capture kinetics. The class given is binding. Conditions: 25° C. As for the experimental part: as §2
Series [4] relates to Cynomolgus monkey EGFR. Description: SPR (BIAcore T200) antibody capture kinetics. It is filed as binding. The following applies: 25° C. As for the experimental part:
as §2

Series [5] addresses T1, Mouse EGFR. Description: ELISA species cross reactivity. It is filed as binding. As for the experimental part: (§3) Specificity for EGFR and cMET species paralogs and closely related family members was determined by ELISA. Briefly, antigen solutions were prepared in PBS at 1 μg/mL and 50 microliters was coated onto half area ELISA assay plates. Plates were washed and blocked with 1% BSA in PBS containing 0.005% Tween-20 (PBS-T) for one hour at room temperature. The wells were washed 4 times in PBS-T. As set out in FIG. 3, the primary antibodies used where: R374 (a non-binding IgG1 isotype control antibody), B09 (anti-cMET antibody), QD6 (anti-EGFR antibody), RAA22 (anti-EGFR antibody), QD6/B09 (bispecific EGFR/c-MET DuetMAb), RAA22/B09 (bispecific EGFR/c-MET DuetMAb), PaniX (anti-EGFR antibody), MetMab (anti-cMET antibody) and Mab11311 (anti-HER4 antibody). Wells were incubated with 50 microliters of the indicated primary antibodies diluted in PBS-T in a 1:3 dilution series, starting at 10 μg/mL and ending at 0.002 μg/mL, except for the HER4 binding mAb control, MAB1131, for which the series started at 1 μg/mL. The wells were washed 4 times in PBS-T, then 50 μl of goat anti-human Fab HRP-labeled secondary antibody, diluted 1:5000 in PBS-T, was added to each well and incubated for one hour at room temperature. […] 50 microliters of TMB stop solution was added to all wells and the absorbance was read at 450 nm on a SpectraMax M5 microplate reader. Data were analyzed in the SoftMax Pro 5 software and plotted using GraphPad Prism 7 graphing software.
(§4) To determine the species cross reactivity, ELISA assays were carried out as described above. […] There was no detectable binding of any of the antibodies to mouse cMET.
On the technique in general: An ELISA detects its analyte on a solid surface through an enzyme-linked reagent.

In series [6] the target is T2, Human EGFR. As to the kind of experiment: ELISA species cross reactivity. It is filed as binding. The following applies: antibody 10 to 0.002 μg/mL. The method, then: as §3, §4
The subject of series [7] is Cynomolgus monkey EGFR. As to the kind of experiment: ELISA species cross reactivity. The class given is binding. The method, then: as §3, §4

Turning to ABT-414, the efficacy result in [1] (Phase II trials, tolerated doses) is listed as “limited efficacy at tolerated doses”. Moreover, the ocular toxicities result in series [1] (treated patients) was “concerning ocular toxicities were frequently observed in treated patients”.

B1: B09/IgG: single-arm specific control antibody molecule with B09 cMET arm (antibody, V domains shown)
VH: QVQLVQSGAEVKKPGASVKVSCKASGYTFTDYYIHWVRQATGQGLEWMGWMNPNSGNTGYAQKFQGRVTMTRDTSISTAYMELSSLRSEDTAVYYCARGQGYTHSWGQGTMVTVSS
VL: DIQMTQSPSTLSASVGDRVTITCRASEGIYHWLAWYQQKPGKAPKLLIYKASSLASGVPSRFSGSGSGTEFTLTISSLQPDDFATYYCQQYSNYPPTFGGGTKLEIK
modifications: left off: another chain or arm of the molecule; a dimerising Fc or GST; small tags and cut ends
Turning to B1, the internalization profile entry with H1975 cells is “very small level of internalization”; with HCC827 cells, “dissociates from cell membrane”.

B2: RAA22/IgG: single-arm specific control antibody molecule with RAA22 EGFR arm (antibody, V domains shown)
VH: QVQLVQSGAEVKKPGSSVKVSCKASGGTFSDNDFSWVRQAPGQGLEWMGAIVAVFRTETYAQKFQDRVKITADISTRTTYMELSSLRSEDTAVYYCARRLMSAISGPGAPLLMWGQGTLVTVSS
VL: QSALTQPRSVSGSPGQSVTISCTGTSSDVGGYNYVSWYQQHPGKAPKLMIYDVSKRPSGVPDRFSGSKSGNTASLTISGLQAEDEADYYCSSYTSSDTLEIFGGGTKLTVL
For the molecule B2, in the series on H1975 cells, the “number of molecules, fold less than for the RAA22-B09 DuetMab (based on fluorescent intensity)” value is given as 10.98 fold and the internalization profile result is on record as “rapid internalization”. The “intensity profiles, fold lower than RAA22/B09” value in the series on HCC827 cells was approximately 10 fold.

B3: QD6/IgG: single-arm specific control antibody molecule with QD6 EGFR arm (antibody, V domains shown)
VH: QVQLVQSGAEVKKPGSSVKVSCKASGGTFSDNDFSWVRQAPGQGLEWMGAIVAVVRTETYAQKFQDRVKITADISTRTTYMELSSLRSEDTAVYYCARRLMSAISGPGAPLLMWGQGTLVTVSS
VL: QSALTQPRSVSGSPGQSVTISCTGTSSDVGGYNYVSWYQQHPGKAPKLMIYDVSERPSGVPDRFSGSKSGNTASLTISGLQAEDEADYYCFSYTSSDTLEIFGGGTKLTVL
B3: the internalization profile entry with H1975 cells was “near-identical internalization time course as the QD6/B09 DuetMab”.

B4: QD6 IgG: high affinity anti-EGFR IgG1 antibody clone, VH SEQ ID NO: 18, VL SEQ ID NO: 22 (antibody, V domains shown)
VH: QVQLVQSGAEVKKPGSSVKVSCKASGGTFSDNDFSWVRQAPGQGLEWMGAIVAVVRTETYAQKFQDRVKITADISTRTTYMELSSLRSEDTAVYYCARRLMSAISGPGAPLLMWGQGTLVTVSS
VL: QSALTQPRSVSGSPGQSVTISCTGTSSDVGGYNYVSWYQQHPGKAPKLMIYDVSERPSGVPDRFSGSKSGNTASLTISGLQAEDEADYYCFSYTSSDTLEIFGGGTKLTVL
Turning to B4, the Koff with Mouse EGFR [2] was 0.000735 s⁻¹; with Human EGFR [3], 0.000292 s⁻¹; in the series on Cynomolgus monkey EGFR [4] it was 0.000288 s⁻¹. Moreover, the Kon was 167000 M⁻¹ s⁻¹ with Mouse EGFR [2], 148000 M⁻¹ s⁻¹ with Human EGFR [3] (1:1 binding model) and 114000 M⁻¹ s⁻¹ in the series on Cynomolgus monkey EGFR [4]. For the same molecule, the ELISA binding result with Mouse EGFR [5], in the series with Human EGFR [6] and with Cynomolgus monkey EGFR [7] was “gave robust signals” each time.
